In article PMC11211491 (2024):
Square brackets hold non-standard residues; d marks the D form. Dap = NC[C@H](N)C(=O)O

Biological target: His-tagged SRPK1ΔNS3 (UniProt Q96SB4 1-655)
Assay: MST

Chain of His-tagged SRPK1ΔNS3 (Q96SB4 other isoform, or with tags, fused parts or gaps mutant): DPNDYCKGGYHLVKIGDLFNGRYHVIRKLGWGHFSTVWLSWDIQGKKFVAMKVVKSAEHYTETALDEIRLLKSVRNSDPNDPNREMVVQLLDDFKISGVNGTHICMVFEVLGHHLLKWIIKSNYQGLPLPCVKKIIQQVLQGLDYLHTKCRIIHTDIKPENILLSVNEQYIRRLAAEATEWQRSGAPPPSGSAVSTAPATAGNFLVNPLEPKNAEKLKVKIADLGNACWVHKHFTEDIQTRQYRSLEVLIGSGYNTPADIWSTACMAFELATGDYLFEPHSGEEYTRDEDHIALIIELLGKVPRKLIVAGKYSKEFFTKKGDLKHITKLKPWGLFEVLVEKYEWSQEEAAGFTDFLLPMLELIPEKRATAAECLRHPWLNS

B1: covalent docking blocker of SRPK (C-DBS) (peptide)
chain: Ac-RERARTRR[Dap](aryl‑SO2F)RARTRERARTR-NH2
  Kd: 1470 nM
